Assay results as given in patent publication US20240279357A1 (THERINI BIO, published 2024).
Values belong to the molecule of their own block, whether it stands above or below them.

Columns and labels:
[1] = target: plasminogen-depleted human Fibrinogen (EMD/Calbiochem) (human) (UniProt P02671); test: ELISA on plate-coated human fibrinogen, antibody titrated, A450
[2] = target: T1, P2 peptide comprising SEQ ID NO: 31 (human fibrin γ377-395) (human); test: ELISA on coated P2 peptide
T1 construct: Bought (CPC Scientific 920712); also called human P2 peptide
T1 peptide: YSMKKTTMKIIPFNRLTIG
Protocol: (§1) The humanized antibodies affinity for fibrinogen, fibrin and P2 peptide were assessed by Enzyme-linked immunosorbent assays (ELISA)s (FIGS. 7-16). ELISAs for fibrinogen binding were performed using plasminogen-depleted human Fibrinogen (EMD/Calbiochem). […] IgG1-depleted Fibrinogen (FGN) in 20 mM HEPES/Saline buffer was added to each well of half of a 96-well Nunc Maxisorp™ ELISA plate. The ELISAs for fibrin binding were prepared by adding 50 mL of 20 mM HEPES/Saline buffer containing 14 mM CaCl₂, and 2 units thrombin to each well of the second half of the Nunc Maxisorp™ ELISA plate. 50 mL of 20 mg fibrinogen in 20 mM HEPES/Saline buffer were then added to a total volume of 100 mL. Plates were placed in a 37° C. incubator for 1 hour to allow fibrinogen to clot into fibrin and subsequently placed overnight into a plate dryer at 37° C. overnight. The ELISAs for P2 peptide were prepared by addition of […] of 30 mM P2 peptide in 20 mM HEPES/Saline buffer to each well of a 96-well Nunc Maxisorp™ ELISA plate. Plates were transferred to the plate dryer and dried overnight at 37° C. All ELISAs were preformed using Nunc MaxiSorp 96-well ELISA plates. Blocking was performed using 100 mL 5% BSA in DPBS are incubated at RT for 1 hour. Plates were washed 5× in DPBS containing 0.05% Tween-20 (EL406 was used for the addition of wash buffer only). 50 mL of primary antibodies was diluted in 0.5% BSA in DPBS, and the primary antibodies were added to the plates and incubated for 2 hours at 37° C. Plates were washed 5× in DPBS/Tween. 100 mL secondary antibodies were diluted in 0.5% BSA in DPBS. The secondary antibodies were then added to the plates and incubated for 1 hour at RT. Afterwards, plates were washed 5× in DPBS/Tween. 100 mL of TMB/E substrate solution was added, and the reaction was stopped after 5 minutes with 1N HCl.

[3] = target: T2, human Fibrin (human fibrinogen clotted on the plate with thrombin and CaCl2) (human, UniProt P02671 36-629; P02675 45-491; P02679 27-437); test: ELISA on human fibrin formed on the plate
T2 construct: Made in the ELISA wells from the human fibrinogen by thrombin and CaCl2, 1 hour at 37 C, then dried
T2 sequence (looked up) 1: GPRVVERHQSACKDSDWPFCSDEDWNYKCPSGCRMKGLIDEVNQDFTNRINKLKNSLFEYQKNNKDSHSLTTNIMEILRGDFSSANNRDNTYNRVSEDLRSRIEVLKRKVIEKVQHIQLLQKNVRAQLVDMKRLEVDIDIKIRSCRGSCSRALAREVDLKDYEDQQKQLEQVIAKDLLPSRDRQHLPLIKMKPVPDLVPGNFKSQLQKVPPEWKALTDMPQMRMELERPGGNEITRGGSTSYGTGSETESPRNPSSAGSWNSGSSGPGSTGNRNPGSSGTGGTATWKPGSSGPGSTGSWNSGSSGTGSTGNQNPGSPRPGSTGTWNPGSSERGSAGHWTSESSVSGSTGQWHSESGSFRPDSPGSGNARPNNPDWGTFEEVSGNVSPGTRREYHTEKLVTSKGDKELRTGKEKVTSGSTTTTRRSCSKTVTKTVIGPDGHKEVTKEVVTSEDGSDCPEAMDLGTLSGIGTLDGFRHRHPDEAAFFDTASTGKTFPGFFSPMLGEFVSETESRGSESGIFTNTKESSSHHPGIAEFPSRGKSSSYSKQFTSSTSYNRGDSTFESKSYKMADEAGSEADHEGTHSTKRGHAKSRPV
T2 sequence (looked up) 2: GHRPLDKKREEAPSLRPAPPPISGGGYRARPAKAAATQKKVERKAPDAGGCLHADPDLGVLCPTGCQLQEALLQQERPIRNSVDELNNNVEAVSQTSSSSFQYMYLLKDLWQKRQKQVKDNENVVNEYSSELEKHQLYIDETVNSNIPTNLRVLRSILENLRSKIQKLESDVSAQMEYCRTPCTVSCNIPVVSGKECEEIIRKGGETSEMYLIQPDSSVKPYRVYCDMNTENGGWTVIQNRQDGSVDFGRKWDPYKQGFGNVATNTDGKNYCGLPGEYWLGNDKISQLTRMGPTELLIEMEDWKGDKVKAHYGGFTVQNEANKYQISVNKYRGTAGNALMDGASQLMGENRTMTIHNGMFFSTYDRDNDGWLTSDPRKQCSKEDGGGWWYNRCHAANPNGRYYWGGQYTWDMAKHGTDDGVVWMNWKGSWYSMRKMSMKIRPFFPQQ
T2 sequence (looked up) 3: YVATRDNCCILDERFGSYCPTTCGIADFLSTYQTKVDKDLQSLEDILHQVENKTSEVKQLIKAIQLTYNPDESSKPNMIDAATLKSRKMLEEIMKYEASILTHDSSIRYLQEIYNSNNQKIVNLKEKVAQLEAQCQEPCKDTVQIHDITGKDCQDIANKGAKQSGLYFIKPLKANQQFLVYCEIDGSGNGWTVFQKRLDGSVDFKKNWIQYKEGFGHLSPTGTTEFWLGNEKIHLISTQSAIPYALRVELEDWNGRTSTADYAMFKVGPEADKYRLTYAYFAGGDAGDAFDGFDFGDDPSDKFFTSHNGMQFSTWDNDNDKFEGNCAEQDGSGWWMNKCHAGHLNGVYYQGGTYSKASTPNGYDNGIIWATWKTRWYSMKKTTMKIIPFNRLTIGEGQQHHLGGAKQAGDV
Protocol: as §1

[4] = target: T3, plasminogen-depleted human Fibrinogen (EMD/Calbiochem) (human, UniProt P02671 20-629; P02675 31-491; P02679 27-437, limits assumed); test: ELISA on coated human fibrinogen; curve did not reach saturation
T3 construct: Bought protein, IgG-depleted, coated on ELISA plates; also called FGN
T3 sequence (looked up) 1: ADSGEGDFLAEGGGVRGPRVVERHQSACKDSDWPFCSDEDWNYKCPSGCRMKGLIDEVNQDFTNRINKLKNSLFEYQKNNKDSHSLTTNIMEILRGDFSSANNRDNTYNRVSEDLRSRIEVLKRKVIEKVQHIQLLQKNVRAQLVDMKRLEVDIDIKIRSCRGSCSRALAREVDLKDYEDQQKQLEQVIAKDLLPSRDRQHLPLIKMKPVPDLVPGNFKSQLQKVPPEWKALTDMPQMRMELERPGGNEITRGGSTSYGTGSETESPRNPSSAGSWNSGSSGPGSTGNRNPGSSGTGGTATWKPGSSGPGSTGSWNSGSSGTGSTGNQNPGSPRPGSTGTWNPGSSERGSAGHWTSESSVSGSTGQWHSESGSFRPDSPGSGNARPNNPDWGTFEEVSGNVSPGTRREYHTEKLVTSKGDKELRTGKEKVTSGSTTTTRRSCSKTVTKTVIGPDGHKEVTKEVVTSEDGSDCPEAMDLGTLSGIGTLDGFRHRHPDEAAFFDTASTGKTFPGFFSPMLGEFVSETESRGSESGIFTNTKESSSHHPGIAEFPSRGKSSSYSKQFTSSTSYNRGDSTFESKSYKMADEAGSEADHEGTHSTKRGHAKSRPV
T3 sequence (looked up) 2: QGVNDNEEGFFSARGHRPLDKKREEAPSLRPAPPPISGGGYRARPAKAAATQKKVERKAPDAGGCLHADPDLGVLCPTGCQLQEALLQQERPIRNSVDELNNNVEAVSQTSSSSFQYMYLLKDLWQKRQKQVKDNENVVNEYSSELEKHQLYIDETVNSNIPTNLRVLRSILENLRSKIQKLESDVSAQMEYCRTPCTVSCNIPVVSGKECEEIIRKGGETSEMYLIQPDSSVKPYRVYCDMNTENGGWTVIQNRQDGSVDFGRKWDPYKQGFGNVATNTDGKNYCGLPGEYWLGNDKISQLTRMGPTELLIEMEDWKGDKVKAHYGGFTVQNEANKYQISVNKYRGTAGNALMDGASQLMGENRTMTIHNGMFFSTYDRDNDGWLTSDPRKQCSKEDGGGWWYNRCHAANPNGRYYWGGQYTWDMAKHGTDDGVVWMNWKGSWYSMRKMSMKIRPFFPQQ
T3 sequence (looked up) 3: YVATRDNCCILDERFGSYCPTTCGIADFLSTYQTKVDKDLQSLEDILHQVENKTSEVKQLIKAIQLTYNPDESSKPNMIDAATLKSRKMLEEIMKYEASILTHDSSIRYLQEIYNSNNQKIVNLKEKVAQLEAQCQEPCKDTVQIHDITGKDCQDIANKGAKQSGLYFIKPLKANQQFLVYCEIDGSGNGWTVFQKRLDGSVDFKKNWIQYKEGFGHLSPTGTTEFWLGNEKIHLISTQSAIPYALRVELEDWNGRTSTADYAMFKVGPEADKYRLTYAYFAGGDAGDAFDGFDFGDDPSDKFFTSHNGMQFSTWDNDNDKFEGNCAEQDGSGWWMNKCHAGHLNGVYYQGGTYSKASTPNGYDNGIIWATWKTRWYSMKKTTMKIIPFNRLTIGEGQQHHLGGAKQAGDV
Protocol: as §1

[5] = target: T1, P2 peptide comprising SEQ ID NO: 31 …; test: ELISA on plate-coated human P2 peptide, antibody titrated, A450
Protocol: as §1, with “50 mL of primary antibodies was diluted in 0.5% BSA in DPBS, and the primary antibodies were added to the plates and incubated for 2 hours at 37° C. Plates were washed 5× in DPBS/Tween. 100 mL secondary antibodies were diluted in 0.5% BSA in DPBS. The secondary antibodies were then added to the plates and incubated for 1 hour at RT. Afterwards, plates were washed 5× in DPBS/Tween. 100 mL of TMB/E substrate solution was added, and the reaction was stopped after 5 minutes with 1N HCl.” left out

[6] = target: T2, human Fibrin (human fibrinogen clotted …); test: ELISA on plate-coated human fibrin (fibrinogen clotted in the well with thrombin/CaCl2), antibody titrated, A450
Protocol: as §1, with “50 mL of primary antibodies was diluted in 0.5% BSA in DPBS, and the primary antibodies were added to the plates and incubated for 2 hours at 37° C. Plates were washed 5× in DPBS/Tween. 100 mL secondary antibodies were diluted in 0.5% BSA in DPBS. The secondary antibodies were then added to the plates and incubated for 1 hour at RT. Afterwards, plates were washed 5× in DPBS/Tween. 100 mL of TMB/E substrate solution was added, and the reaction was stopped after 5 minutes with 1N HCl.” left out

[7] = target: T1, P2 peptide comprising SEQ ID NO: 31 …; test: SPR (Biacore) single cycle, steady state affinity; IgG from HEK supernatant captured, γ377-395 peptide analyte

EC50 [1]: 1840 nM
Molecule: mouse IgG2b isotype control (antibody)

EC50 [2]: ~29 nM
EC50 [3]: ~82.6 nM
EC50 [4]: ~1600 nM
EC50 (read off the curve) [5]: ~30 nM
EC50 (read off the curve) [6]: ~80 nM
B1: mouse monoclonal anti-fibrin antibody 5B8 (antibody, V domains shown)
VH: QVQLQQPGAELVRPGTSVKLSCKASGYTFTSYWIHWVKQRPGQGLEWIGLIDPSDSYTNYNQKFRGKATLTVDTSSSTAYMQLSSLTSEDSAVYYCASSDPTGCWGQGTTLTVSP
VL: DIVMTQAAFSNPITLGTSASMSCRSSKSLLHSSGITYLSWYLQKPGQSPQLLIYQMSNLASGVPDRFSSSGSGTDFTLRISRVEAEDVGVYYCAQNLELPLTFGAGTKLELK
notes: also called murine 5B8; Murine 5B8 (from client)

Kd [7]: 44000 nM
Relative KD [7]: 0.56 fold against VH5/VK2
B2: VH5 C102V/VK2 (antibody, IgG1, V domains shown)
VH: QVQLVQSGAEVKKPGSSVKVSCKASGYTFTSYWIHWVRQAPGQGLEWIGLIDPSDSYTNYNQKFRGRVTITRDTSTSTAYMELSSLRSEDTAVYYCASSDPTGVWGQGTTVTVSS
VL: DIVMTQAAFSNPVTPGTPASISCRSSKSLLHSSGITYLSWYLQKPGQSPQLLIYQMSNLASGVPDRFSSSGSGTDFTLKISRVEAEDVGVYYCAQNLELPLTFGQGTKLEIK
notes: IgG1, tested from HEK supernatant; also called VH5-102V

Kd [7]: 33000 nM
Relative KD [7]: 0.7 fold against VH4/VK2
B3: VH4 C102V/VK2 (antibody, IgG1, V domains shown)
VH: QVQLVQSGAEVKKPGSSVKVSCKASGYTFTSYWIHWVRQAPGQGLEWIGLIDPSDSYTNYNQKFRGRVTITVDTSTSTAYMELSSLRSEDTAVYYCASSDPTGVWGQGTTVTVSS
VL: DIVMTQAAFSNPVTPGTPASISCRSSKSLLHSSGITYLSWYLQKPGQSPQLLIYQMSNLASGVPDRFSSSGSGTDFTLKISRVEAEDVGVYYCAQNLELPLTFGQGTKLEIK
notes: IgG1, tested from HEK supernatant; also called VH4-102V
